Test results published in paper PMC6949489, “Glutathione peroxidase 8 negatively regulates caspase‐4/11 to protect against colitis” (EMBO Molecular Medicine, 2019).

Molecular target: the molecule itself
Experiment: native gel or EMSA; blue native PAGE (3-12%) and immunoblot; purified caspase-4 (C258S) incubated with or without oxidized GPx8 30 min at 4°C, then with different amounts of LPS 30 min at 37°C; LPS-induced oligomerization

B1: FLAG-tagged human caspase-4 (C258S) protease-deficient mutant (natural protein, UniProt P49662 1-377, looked up)
chain: MAEGNHRKKPLKVLESLGKDFLTGVLDNLVEQNVLNWKEEEKKKYYDAKTEDKVRVMADSMQEKQRMAGQMLLQTFFNIDQISPNKKAHPNMEAGPPESGESTDALKLCPHEEFLRLCKERAEEIYPIKERNNRTRLALIICNTEFDHLPPRNGADFDITGMKELLEGLDYSVDVEENLTARDMESALRAFATRPEHKSSDSTFLVLMSHGILEGICGTVHDEKKPDVLLYDTIFQIFNNRNCLSLKDKPKVIIVQASRGANRGELWVRDSPASLEVASSQSSENLEEDAVYKTHVEKDFIAFCSSTPHNVSWRDSTMGSIFITQLITCFQKYSWCCHLEEVFRKVQQSFETPRAKAQMPTIERLSMTRYFYLFPGN
notes: human caspase-4 with the protease-deficient mutation C258S; also called Casp4C258S; source: 293T, transfected, in lysate
B1: binds.
